Source: publication PMC6331805

Molecular target: T1, NtcA (Synechocystis sp. PCC 6803) (UniProt P33779)
T1 sequence: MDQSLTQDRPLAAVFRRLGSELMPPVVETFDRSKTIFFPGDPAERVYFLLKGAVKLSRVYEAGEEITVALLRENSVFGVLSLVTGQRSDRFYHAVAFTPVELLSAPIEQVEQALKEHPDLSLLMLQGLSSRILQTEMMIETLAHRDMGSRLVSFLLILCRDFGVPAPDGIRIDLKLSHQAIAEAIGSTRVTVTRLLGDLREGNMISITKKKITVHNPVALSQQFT
Assay: EMSA
Settings: Roche DIG Gel Shift kit buffer (composition and pH not stated), 2 ng DIG-labeled DNA, 15 min at room temperature, native 8% PAGE; 5 mM MgCl2 in 2-oxoglutarate …

Sequence | binding
ACTCTGACGTACCCATTGACGGGGTAACTTACTCAAGCTAAAAGGTAAAGAATTGTAAACTAAGTTAATTATCCCAGGAAATCCCATGAG (double strand) [scpE promoter fragment 90 bp] | binds
TTTGAGCCTAACATTATCCTCCCGTTGCCTTTTTCACCACAGACTTGCCATGGGCGCAATACTCTGTTACATTTATTTACATAGACAACCCTCCCAGCTCGTAATTACAT (double strand) [scpB promoter fragment 110 bp] | binds
